Results as given in US20240192215A1 (E AND S HEALTHCARE, published 2024).

Assays:
Test in all cases: peptide microarray, anti-mouse IgG DyLight 650, MMC2 heatmap (Example 17)
Peptide_011 = biological target: T1, Peptide_011
T1 peptide: HHHHHHHHVKQIESK
Description: (§1) 5, 1, 0.2, 0.04, 0.008 and 0.0016 μg/mL serial dilutions were incubated on a single multi-well microarray slide at 30° C. for 1 hour. The slide includes 21 individual mini-arrays (one mini-array per sample dilution).
(§2) DyLight 650 was used as a label. False-positive binding to a peptide was evaluated by performing one additional control incubation in which only a secondary antibody was applied on the same microarray slide. Before performing each step, the microarrays were washed with a washing buffer.
(§3) To visualize the obtained results and compare binding regions across individual cultures, as shown in FIGS. 21A to 21D, heatmap diagrams were calculated. In FIGS. 21A to 21D, the fluorescence intensity is expressed in a color-coded manner, white indicates no binding, and red indicates strong binding. For all evaluations, the MMC2-value of the average pixel fluorescence for each peptide was calculated.

Peptide_038 = biological target: T2, Peptide_038
T2 peptide: KLVVVDFSATWCGPC
Description: as §1, §2, §3

Peptide_002 = biological target: T3, Peptide_002
T3 peptide: ATAADVHSQHHHHHH
Description: as §1, §2, §3

Peptide_042 = biological target: T4, Peptide_042
T4 peptide: VDFSATWCGPCKMIK
Description: as §1, §2, §3

Peptide_067 = biological target: T5, Peptide_067
T5 peptide: SNVIFLEVDVDDCQD
Description: as §1, §2, §3

Peptide_026 = biological target: T6, Peptide_026
T6 peptide: TAFQEALDAAGDKLV
Description: as §1, §2, §3

Peptide_016 = biological target: T7, Peptide_016
T7 peptide: HHHVKQIESKTAFQE
Description: as §1, §2, §3

Peptide_078 = biological target: T8, Peptide_078
T8 peptide: DCQDVASECEVKCMP
Description: as §1, §2, §3

Peptide_088 = biological target: T9, Peptide_088
T9 peptide: VKCMPTFQFFKKGQK
Description: as §1, §2, §3

Peptide_064 = biological target: T10, Peptide_064
T10 peptide: EKYSNVIFLEVDVDD
Description: as §1, §2, §3

Peptide_105 = biological target: T11, Peptide_105
T11 construct: also called EFSGANKEKLEATIN
T11 peptide: EFSGANKEKLEATIN
Description: as §1, §2, §3

Peptide_103 = biological target: T12, Peptide_103
T12 peptide: VGEFSGANKEKLEAT
Description: as §1, §2, §3

Peptide_068 = biological target: T13, Peptide_068
T13 peptide: NVIFLEVDVDDCQDV
Description: as §1, §2, §3

Peptide_036 = biological target: T14, Peptide_036
T14 peptide: GDKLVVVDFSATWCG
Description: as §1, §2, §3

Peptide_101 = biological target: T15, Peptide_101
T15 peptide: QKVGEFSGANKEKLE
Description: as §1, §2, §3

Peptide_003 = biological target: T16, Peptide_003
T16 peptide: TAADVHSQHHHHHHH
Description: as §1, §2, §3

Peptide_008 = biological target: T17, Peptide_008
T17 peptide: HSQHHHHHHHHVKQI
Description: as §1, §2, §3

Peptide_070 = biological target: T18, Peptide_070
T18 peptide: IFLEVDVDDCQDVAS
Description: as §1, §2, §3

Peptide_098 = biological target: T19, Peptide_098
T19 peptide: KKGQKVGEFSGANKE
Description: as §1, §2, §3

Peptide_074 = biological target: T20, Peptide_074
T20 peptide: VDVDDCQDVASECEV
Description: as §1, §2, §3

Peptide_040 = biological target: T21, Peptide_040
T21 peptide: VVVDFSATWCGPCKM
Description: as §1, §2, §3

Peptide_035 = biological target: T22, Peptide_035
T22 peptide: AGDKLVVVDFSATWC
Description: as §1, §2, §3

Peptide_080 = biological target: T23, Peptide_080
T23 peptide: QDVASECEVKCMPTF
Description: as §1, §2, §3

Peptide_027 = biological target: T24, Peptide_027
T24 peptide: AFQEALDAAGDKLVV
Description: as §1, §2, §3

Peptide_104 = biological target: T25, Peptide_104
T25 peptide: GEFSGANKEKLEATI
Description: as §1, §2, §3

Peptide_001 = biological target: T26, Peptide_001
T26 peptide: VATAADVHSQHHHHH
Description: as §1, §2, §3

Peptide_087 = biological target: T27, Peptide_087
T27 peptide: EVKCMPTFQFFKKGQ
Description: as §1, §2, §3

Peptide_073 = biological target: T28, Peptide_073
T28 construct: also called EVDVDDCQDVASECE
T28 peptide: EVDVDDCQDVASECE
Description: as §1, §2, §3

Measured: binding result

B1: monoclonal antibody B264 (antibody, mouse IgG1, kappa, V domains shown)
VH: QVQLQQSGAELARPGASVKMSCKASGYTFTSYTMHWVKQRPGQGLEWIGYINPTSDYTNYNQKFKDKATLTADKSSSTAYMQLSSLTSEDSAVYFCASEGGFLYYFDYWGQGTTLTVSS
VL: DVLMTQTPLSLPVSLGDQASISCRSSQSIVHSNGNTYLEWYLQKPGQSPKLLIYKVSNRFSGVPDRFSGSGSGTDFTLKISRVEAEDLGVYYCFQGSHVPYTFGGGTKLEIKR
notes: also called AB264; B264 (Trx1-mIgG1)
binds: Peptide_038 | Peptide_016
no binding (tested: 5 ug/mL): Peptide_011 | Peptide_002 | Peptide_042 | Peptide_067 | Peptide_026 | Peptide_078 | Peptide_088 | Peptide_064 | Peptide_105 | Peptide_103 | Peptide_068 | Peptide_036 | Peptide_101 | Peptide_003 | Peptide_008 | Peptide_070 | Peptide_098 | Peptide_074 | Peptide_040 | Peptide_035 | Peptide_080 | Peptide_027 | Peptide_104 | Peptide_001 | Peptide_087 | Peptide_073
